Substitutions are numbered along the chain they refer to. One block for each binder: values may come before it.
Biological target: recombinant human PDGF-BB (human, UniProt P01127 82-190)
Assay: cell-based or functional assay

Chain of recombinant human PDGF-BB (P01127 82-190 limits assumed): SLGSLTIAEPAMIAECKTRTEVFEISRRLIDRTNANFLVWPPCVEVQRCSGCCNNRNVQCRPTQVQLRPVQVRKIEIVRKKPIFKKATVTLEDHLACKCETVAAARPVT

B1: 4G8.3-LS-9E8.4 (g) DVD-Ig (PR-1572106) (bispecific antibody, human IgG1, kappa, L234A L235A)
heavy: EVQLVQSGSELKKPGASVKVSCKASGYTFTNYGMYWVRQAPGQGLEWMGWINTETGKPTYADDFKGRFVFSLDTSVSTAYLQISSLKAEDTAVYYCARTNYYYRSYIFYFDYWGQGTMVTVSSASTKGPSVFPLAPEVTLRESGPALVKPTQTLTLTCTFSGFSLSTYGMGVGWIRQPPGKALEWLANIWWDDDKYYNPSLKNRLTISKDTSKNQVVLTMTNMDPVDTATYYCARIESIGTTYSFDYWGQGTMVTVSSASTKGPSVFPLAPSSKSTSGGTAALGCLVKDYFPEPVTVSWNSGALTSGVHTFPAVLQSSGLYSLSSVVTVPSSSLGTQTYICNVNHKPSNTKVDKKVEPKSCDKTHTCPPCPAPEAAGGPSVFLFPPKPKDTLMISRTPEVTCVVVDVSHEDPEVKFNWYVDGVEVHNAKTKPREEQYNSTYRVVSVLTVLHQDWLNGKEYKCKVSNKALPAPIEKTISKAKGQPREPQVYTLPPSREEMTKNQVSLTCLVKGFYPSDIAVEWESNGQPENNYKTTPPVLDSDGSFFLYSKLTVDKSRWQQGNVFSCSVMHEALHNAYTQKSLSLSPGK
light: DTVLTQSPATLSLSPGERATLSCRASESVSTHMHWYQQKPGQAPRLLIYGASNLESGVPARFSGSGSGTDFTLTISSLEPEDFAVYFCQQSWNDPFTFGQGTKLEIKRTVAAPEFVLTQSPGTLSLSPGERATLSCERSSGDIGDSYVSWYQQKPGQAPRLVIYADDQRPSGIPDRFSGSGSGTDFTLTISRLEPEDFAVYYCQSYDINIDIVFGGGTKVEIKRTVAAPSVFIFPPSDEQLKSGTASVVCLLNNFYPREAKVQWKVDNALQSGNSQESVTEQDSKDSTYSLSSTLTLSKADYEKHKVYACEVTHQGLSSPVTKSFNRGEC
NIH-3T3 hPDGF-BB Potency IC50: 0.109 nM

B2: 4G8.3-LS-9E8.4E DVD-Ig (PR-1575835) (bispecific antibody, human IgG1, kappa, L234A L235A)
heavy: B1 heavy
light: B1 light with D145E
NIH-3T3 hPDGF-BB Potency IC50: 0.176 nM

B6: 4G8.3-GS(11)-9E8.4 (g) DVD-Ig (PR-1572103) (bispecific antibody, human IgG1, kappa, L234A L235A)
heavy: EVQLVQSGSELKKPGASVKVSCKASGYTFTNYGMYWVRQAPGQGLEWMGWINTETGKPTYADDFKGRFVFSLDTSVSTAYLQISSLKAEDTAVYYCARTNYYYRSYIFYFDYWGQGTMVTVSSGGGGSGGGGSEVTLRESGPALVKPTQTLTLTCTFSGFSLSTYGMGVGWIRQPPGKALEWLANIWWDDDKYYNPSLKNRLTISKDTSKNQVVLTMTNMDPVDTATYYCARIESIGTTYSFDYWGQGTMVTVSSASTKGPSVFPLAPSSKSTSGGTAALGCLVKDYFPEPVTVSWNSGALTSGVHTFPAVLQSSGLYSLSSVVTVPSSSLGTQTYICNVNHKPSNTKVDKKVEPKSCDKTHTCPPCPAPEAAGGPSVFLFPPKPKDTLMISRTPEVTCVVVDVSHEDPEVKFNWYVDGVEVHNAKTKPREEQYNSTYRVVSVLTVLHQDWLNGKEYKCKVSNKALPAPIEKTISKAKGQPREPQVYTLPPSREEMTKNQVSLTCLVKGFYPSDIAVEWESNGQPENNYKTTPPVLDSDGSFFLYSKLTVDKSRWQQGNVFSCSVMHEALHNAYTQKSLSLSPGK
light: DTVLTQSPATLSLSPGERATLSCRASESVSTHMHWYQQKPGQAPRLLIYGASNLESGVPARFSGSGSGTDFTLTISSLEPEDFAVYFCQQSWNDPFTFGQGTKLEIKRGGSGGGGSGGEFVLTQSPGTLSLSPGERATLSCERSSGDIGDSYVSWYQQKPGQAPRLVIYADDQRPSGIPDRFSGSGSGTDFTLTISRLEPEDFAVYYCQSYDINIDIVFGGGTKVEIKRTVAAPSVFIFPPSDEQLKSGTASVVCLLNNFYPREAKVQWKVDNALQSGNSQESVTEQDSKDSTYSLSSTLTLSKADYEKHKVYACEVTHQGLSSPVTKSFNRGEC
NIH-3T3 hPDGF-BB Potency IC50: 0.298 nM

B7: 4G8.3-GS(noR)-9E8.4 (g) DVD-Ig (PR-1572104) (bispecific antibody, human IgG1, kappa, L234A L235A)
heavy: B6 heavy
light: DTVLTQSPATLSLSPGERATLSCRASESVSTHMHWYQQKPGQAPRLLIYGASNLESGVPARFSGSGSGTDFTLTISSLEPEDFAVYFCQQSWNDPFTFGQGTKLEIKGGSGGGGSGGEFVLTQSPGTLSLSPGERATLSCERSSGDIGDSYVSWYQQKPGQAPRLVIYADDQRPSGIPDRFSGSGSGTDFTLTISRLEPEDFAVYYCQSYDINIDIVFGGGTKVEIKRTVAAPSVFIFPPSDEQLKSGTASVVCLLNNFYPREAKVQWKVDNALQSGNSQESVTEQDSKDSTYSLSSTLTLSKADYEKHKVYACEVTHQGLSSPVTKSFNRGEC
NIH-3T3 hPDGF-BB Potency IC50: 0.095 nM

B8: 9A8.12-GS-9E8.4E DVD-Ig (PR-1577165) (bispecific antibody, human IgG1, kappa, L234A L235A)
heavy: EVQLVQSGAEVKKPGASVKVSCKASGYTFTNYGMYWVRQAPGQGLEWMGWINTETGKPIYADDFKGRVTMTTDTSTSTAYMELRSLRSDDTAVYYCARVDYDGSFWFAYWGQGTLVTVSSGGGGSGGGGSEVTLRESGPALVKPTQTLTLTCTFSGFSLSTYGMGVGWIRQPPGKALEWLANIWWDDDKYYNPSLKNRLTISKDTSKNQVVLTMTNMDPVDTATYYCARIESIGTTYSFDYWGQGTMVTVSSASTKGPSVFPLAPSSKSTSGGTAALGCLVKDYFPEPVTVSWNSGALTSGVHTFPAVLQSSGLYSLSSVVTVPSSSLGTQTYICNVNHKPSNTKVDKKVEPKSCDKTHTCPPCPAPEAAGGPSVFLFPPKPKDTLMISRTPEVTCVVVDVSHEDPEVKFNWYVDGVEVHNAKTKPREEQYNSTYRVVSVLTVLHQDWLNGKEYKCKVSNKALPAPIEKTISKAKGQPREPQVYTLPPSREEMTKNQVSLTCLVKGFYPSDIAVEWESNGQPENNYKTTPPVLDSDGSFFLYSKLTVDKSRWQQGNVFSCSVMHEALHNAYTQKSLSLSPGK
light: DTQLTQSPSSLSASVGDRVTITCRASESVSTVIHWYQQKPGKQPKLLIHGASNLESGVPSRFSGSGSGTDFTLTISSLQPEDFATYFCQQHWNDPPTFGQGTKLEIKRGGSGGGGSGEFVLTQSPGTLSLSPGERATLSCERSSGDIGESYVSWYQQKPGQAPRLVIYADDQRPSGIPDRFSGSGSGTDFTLTISRLEPEDFAVYYCQSYDINIDIVFGGGTKVEIKRTVAAPSVFIFPPSDEQLKSGTASVVCLLNNFYPREAKVQWKVDNALQSGNSQESVTEQDSKDSTYSLSSTLTLSKADYEKHKVYACEVTHQGLSSPVTKSFNRGEC
NIH-3T3 hPDGF-BB Potency IC50: 0.204 nM

Results, then the binder that gave them:

NIH-3T3 hPDGF-BB Potency IC50: > 5 nM
B3: CODV007 cross-over DVD-Ig (PR-1565085) (bispecific antibody, human IgG1, kappa, L234A L235A)
heavy: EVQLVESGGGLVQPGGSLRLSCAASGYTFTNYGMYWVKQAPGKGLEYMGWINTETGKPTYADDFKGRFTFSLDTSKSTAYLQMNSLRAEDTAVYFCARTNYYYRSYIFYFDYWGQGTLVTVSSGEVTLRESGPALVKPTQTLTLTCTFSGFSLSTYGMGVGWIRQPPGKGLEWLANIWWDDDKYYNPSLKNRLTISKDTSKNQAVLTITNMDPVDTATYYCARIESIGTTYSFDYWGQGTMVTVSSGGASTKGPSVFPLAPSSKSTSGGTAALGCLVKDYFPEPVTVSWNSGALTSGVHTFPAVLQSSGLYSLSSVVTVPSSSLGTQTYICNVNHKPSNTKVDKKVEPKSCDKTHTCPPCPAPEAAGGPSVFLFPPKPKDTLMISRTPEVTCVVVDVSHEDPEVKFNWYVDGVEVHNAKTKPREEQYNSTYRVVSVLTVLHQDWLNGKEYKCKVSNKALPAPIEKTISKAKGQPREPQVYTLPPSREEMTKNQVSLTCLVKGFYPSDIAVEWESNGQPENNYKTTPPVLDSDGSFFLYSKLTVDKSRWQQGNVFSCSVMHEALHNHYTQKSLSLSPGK
light: DFQLTQSPSSLSASVGDRVTITCERSSGDIGDSYVSWYQQKPGKAPKNVIYADDQRPSGVPSRFSGSGSGNSASLTISSLQPEDFATYFCQSYDINIDIVFGQGTKVEIKGGGSGGGDTQLTQSPSSLSASVGDRVTISCRASESVSTHMHWYQQKPGKAPKLLIYGASNLESGVPSRFSGSGSGTDFTLTISSLQPEDFATYFCQQSWNDPFTFGQGTKVEIKGGGSGRTVAAPSVFIFPPSDEQLKSGTASVVCLLNNFYPREAKVQWKVDNALQSGNSQESVTEQDSKDSTYSLSSTLTLSKADYEKHKVYACEVTHQGLSSPVTKSFNRGEC

NIH-3T3 hPDGF-BB Potency IC50: 0.133 nM
B4: 9A8.12-LS-9E8.4E DVD-Ig (PR-1577547) (bispecific antibody, human IgG1, kappa, L234A L235A)
heavy: EVQLVQSGAEVKKPGASVKVSCKASGYTFTNYGMYWVRQAPGQGLEWMGWINTETGKPIYADDFKGRVTMTTDTSTSTAYMELRSLRSDDTAVYYCARVDYDGSFWFAYWGQGTLVTVSSASTKGPSVFPLAPEVTLRESGPALVKPTQTLTLTCTFSGFSLSTYGMGVGWIRQPPGKALEWLANIWWDDDKYYNPSLKNRLTISKDTSKNQVVLTMTNMDPVDTATYYCARIESIGTTYSFDYWGQGTMVTVSSASTKGPSVFPLAPSSKSTSGGTAALGCLVKDYFPEPVTVSWNSGALTSGVHTFPAVLQSSGLYSLSSVVTVPSSSLGTQTYICNVNHKPSNTKVDKKVEPKSCDKTHTCPPCPAPEAAGGPSVFLFPPKPKDTLMISRTPEVTCVVVDVSHEDPEVKFNWYVDGVEVHNAKTKPREEQYNSTYRVVSVLTVLHQDWLNGKEYKCKVSNKALPAPIEKTISKAKGQPREPQVYTLPPSREEMTKNQVSLTCLVKGFYPSDIAVEWESNGQPENNYKTTPPVLDSDGSFFLYSKLTVDKSRWQQGNVFSCSVMHEALHNAYTQKSLSLSPGK
light: DTQLTQSPSSLSASVGDRVTITCRASESVSTVIHWYQQKPGKQPKLLIHGASNLESGVPSRFSGSGSGTDFTLTISSLQPEDFATYFCQQHWNDPPTFGQGTKLEIKRTVAAPEFVLTQSPGTLSLSPGERATLSCERSSGDIGESYVSWYQQKPGQAPRLVIYADDQRPSGIPDRFSGSGSGTDFTLTISRLEPEDFAVYYCQSYDINIDIVFGGGTKVEIKRTVAAPSVFIFPPSDEQLKSGTASVVCLLNNFYPREAKVQWKVDNALQSGNSQESVTEQDSKDSTYSLSSTLTLSKADYEKHKVYACEVTHQGLSSPVTKSFNRGEC

NIH-3T3 hPDGF-BB Potency IC50: > 5 nM
B5: CODV008 cross-over DVD-Ig (PR-1565086) (bispecific antibody, human IgG1, kappa, L234A L235A)
heavy: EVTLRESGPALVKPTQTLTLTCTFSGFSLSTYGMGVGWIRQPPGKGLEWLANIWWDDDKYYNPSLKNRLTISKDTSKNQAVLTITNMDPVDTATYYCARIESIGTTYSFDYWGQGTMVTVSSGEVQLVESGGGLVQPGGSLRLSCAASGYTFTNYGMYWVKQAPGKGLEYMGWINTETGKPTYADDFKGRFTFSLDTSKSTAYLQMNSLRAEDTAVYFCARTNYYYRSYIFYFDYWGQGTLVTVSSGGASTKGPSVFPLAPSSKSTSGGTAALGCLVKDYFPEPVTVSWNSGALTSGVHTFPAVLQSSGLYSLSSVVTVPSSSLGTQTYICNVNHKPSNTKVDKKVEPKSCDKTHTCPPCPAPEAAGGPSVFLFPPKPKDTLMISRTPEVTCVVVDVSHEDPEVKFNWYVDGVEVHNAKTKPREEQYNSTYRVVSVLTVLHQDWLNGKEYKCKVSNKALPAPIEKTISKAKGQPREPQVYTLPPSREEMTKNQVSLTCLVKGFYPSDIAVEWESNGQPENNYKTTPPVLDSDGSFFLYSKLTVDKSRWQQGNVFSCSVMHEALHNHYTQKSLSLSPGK
light: DTQLTQSPSSLSASVGDRVTISCRASESVSTHMHWYQQKPGKAPKLLIYGASNLESGVPSRFSGSGSGTDFTLTISSLQPEDFATYFCQQSWNDPFTFGQGTKVEIKGGGSGGGDFQLTQSPSSLSASVGDRVTITCERSSGDIGDSYVSWYQQKPGKAPKNVIYADDQRPSGVPSRFSGSGSGNSASLTISSLQPEDFATYFCQSYDINIDIVFGQGTKVEIKGGGSGRTVAAPSVFIFPPSDEQLKSGTASVVCLLNNFYPREAKVQWKVDNALQSGNSQESVTEQDSKDSTYSLSSTLTLSKADYEKHKVYACEVTHQGLSSPVTKSFNRGEC

NIH-3T3 hPDGF-BB Potency IC50: 0.148 nM
B9: 9A8.12-SL-9E8.4E DVD-Ig (PR-1577166) (bispecific antibody, human IgG1, kappa, L234A L235A)
heavy: EVQLVQSGAEVKKPGASVKVSCKASGYTFTNYGMYWVRQAPGQGLEWMGWINTETGKPIYADDFKGRVTMTTDTSTSTAYMELRSLRSDDTAVYYCARVDYDGSFWFAYWGQGTLVTVSSASTKGPEVTLRESGPALVKPTQTLTLTCTFSGFSLSTYGMGVGWIRQPPGKALEWLANIWWDDDKYYNPSLKNRLTISKDTSKNQVVLTMTNMDPVDTATYYCARIESIGTTYSFDYWGQGTMVTVSSASTKGPSVFPLAPSSKSTSGGTAALGCLVKDYFPEPVTVSWNSGALTSGVHTFPAVLQSSGLYSLSSVVTVPSSSLGTQTYICNVNHKPSNTKVDKKVEPKSCDKTHTCPPCPAPEAAGGPSVFLFPPKPKDTLMISRTPEVTCVVVDVSHEDPEVKFNWYVDGVEVHNAKTKPREEQYNSTYRVVSVLTVLHQDWLNGKEYKCKVSNKALPAPIEKTISKAKGQPREPQVYTLPPSREEMTKNQVSLTCLVKGFYPSDIAVEWESNGQPENNYKTTPPVLDSDGSFFLYSKLTVDKSRWQQGNVFSCSVMHEALHNAYTQKSLSLSPGK
light: DTQLTQSPSSLSASVGDRVTITCRASESVSTVIHWYQQKPGKQPKLLIHGASNLESGVPSRFSGSGSGTDFTLTISSLQPEDFATYFCQQHWNDPPTFGQGTKLEIKRTVAAPSVFIFPPEFVLTQSPGTLSLSPGERATLSCERSSGDIGESYVSWYQQKPGQAPRLVIYADDQRPSGIPDRFSGSGSGTDFTLTISRLEPEDFAVYYCQSYDINIDIVFGGGTKVEIKRTVAAPSVFIFPPSDEQLKSGTASVVCLLNNFYPREAKVQWKVDNALQSGNSQESVTEQDSKDSTYSLSSTLTLSKADYEKHKVYACEVTHQGLSSPVTKSFNRGEC

— US20170015742A1 (published 2017)
